Measured values: PMC10684580, “Unexpected dynamics in femtomolar complexes of binding proteins with peptides” (Nature Communications, 2023)

Legend:
N^AM4C [1] = assay: [15N,1H]-HSQC peptide titration, N^AM4C/NM4C; type: binding; settings: 310 K, 250 μM dArmRP
Description: All experiments were recorded on Bruker Neo 600 or 700 MHz spectrometers, employing cryogenically cooled or Prodigy ^1H, ^13C, ^15N triple-resonance probes. Pulse field gradients with coherence selection[46] were applied to all heteronuclear ^15N,^1H experiments using standard Bruker pulse sequences, together with the Rance-Palmer method for sensitivity enhancement. All spectra were processed in TOPSPIN using cosine-bell-shifted window functions prior to Fourier transformation, and analyzed in CARA[48]. Chemical shift assignments were obtained from triple-resonance and HCCH-type 3D NMR experiments using the standard Bruker pulse-program library. […]
(§1) The peptides were dissolved in NMR buffer to generate 10 mM stocks that were titrated in 0.1 molar equivalents steps to 250 μM dArmRPs in NMR buffer up to 1.5 equivalents, and then in 0.5 equivalents steps up to 5.5 equivalents. For each step, a [^15N,^1H]-HSQC experiment was recorded at 310 K with the other parameters described above.
Assignments of the spectra required for CSPs were performed through segmental labeling as detailed in the Results section. […] CSPs were calculated using the following formula[50]9 δHf−δHb/1^2+δNf−δNb/4^2 where δH and δN represent the chemical shifts in the proton and nitrogen dimensions, respectively, while f and b represent the free and bound states, respectively. […]

N^AM4C [2] = assay: NMR line-shape simulation, N^AM4C peptide titration (three-state); type: binding; settings: three-state model, 310 K
Description: as §1
The change of line-shape and peak positions in the [^15N,^1H]-HSQC spectra upon adding (KR)n was simulated using in-house written Mathematica notebooks. In principle, for the simple two-state process of ligand binding, described only by single kon and koff rates and the concentrations used, the modified Bloch McConnell equations[49] can be used. […]
For simplicity, the same transverse relaxation rate R2 was assumed for all protein states and the chemical shift of the partially unbound state PL^* to be the same as for the free protein, that is ΩP . ΩPL is the chemical shift of the bound state and L the equilibrium concentration of the free peptide. […] Thereby the k1,on and k1,off rate constants were chosen such that their ratio was in the range of the measured or predicted Kd values[21] and that all signals during the titration could be fitted well (see text, Supplementary Fig. 12). […]

[3] = target: N^AM7C designed Armadillo repeat protein (dArmRP) with the N^A cap, seven identical internal modules M and the C cap; assay: NMR titration; line-shape simulation of traces from [15N,1H]-HSQC titrations; three-state model P + L = PL = PL*; parameters adjusted by visual inspection, k1,on and k1,off chosen so that their ratio fits the measured or predicted Kd
[4] = target: N^YM7C designed Armadillo repeat protein (dArmRP) with the N^Y cap, seven identical internal modules M and the C cap; assay: NMR titration; [15N,1H]-HSQC chemical shift perturbations; 10 mM peptide stock titrated in 0.1 equivalent steps to 250 uM dArmRP in NMR buffer up to 1.5 equivalents, then 0.5 equivalent steps up to 5.5 equivalents; 310 K
[5] = target: N^AM4C designed Armadillo repeat protein (dArmRP) with the redesigned N^A (artificial) cap, four identical internal modules M and the C cap; assay: as above
[6] = target: N^AM4C designed Armadillo repeat protein (dArmRP) with the redesigned N^A (artificial) cap, four identical internal modules M and the C cap; assay: NMR titration; line-shape simulation of traces from [15N,1H]-HSQC titrations; three-state model P + L = PL = PL*; parameters adjusted by visual inspection, k1,on and k1,off chosen so that their ratio fits the measured or predicted Kd
mCherry-tagged N^YM7C = assay: FRET or BRET; FRET-based stopped-flow assay; 20 nM GFP-tagged peptide mixed 1:1 (volume) with 50-250 nM mCherry-tagged NM7C for kon; koff from competition: preincubated 50 nM tagged peptide and 40 nM tagged protein mixed 1:1 with 2 uM unlabeled competitor

Molecule: (Lys-Arg)4 [(KR)4]
- peptide required for full saturation (N^AM4C [1]): 1.3 equiv.
- k2 (isomerization of bound state, PL to PL*) (N^AM4C [2]): 30 s^–1
- k2’ (PL* to PL) (N^AM4C [2]): 700 s^–1

Molecule: Ac-KRKRKRKRKRKRKR-OH [(KR)7 peptide]
- k1,off (step 1, overall unbinding; line-shape simulation parameter) [3]: 0.0003 s^–1
- k1,on (step 1, overall binding; line-shape simulation parameter) [3]: 6.2e+08 M^–1·s^–1
- k2 (step 2, exchange in the bound state, PL to PL*) [3]: 30 s^–1
- k2’ (step 2, exchange in the bound state, PL* to PL) [3]: 100 s^–1
- equivalents of peptide required for full saturation [4]: 1 equiv.
- equivalents of peptide required for full saturation [5]: 1 equiv.

Molecule: Ac-KRKRKRKR-OH [(KR)4 peptide, (Lys-Arg)4 octapeptide]
- k1,off (step 1, overall unbinding; line-shape simulation parameter) [6]: 300 s^–1
- k1,on (step 1, overall binding; line-shape simulation parameter) [6]: 1e+09 M⁻¹ s⁻¹
- k2 (step 2, exchange in the bound state, PL to PL*) [6]: 30 s^–1
- k2’ (step 2, exchange in the bound state, PL* to PL) [6]: 700 s^–1
- equivalents of peptide required for full saturation [5]: 1.3 equiv.

Molecule: KRKRKRKR [GFP-tagged (KR)4 peptide]
- koff (mCherry-tagged N^YM7C): 0.23 s⁻¹
